For this test, the target named is GCaMP2 (original protein with the N-terminal hexahistidine tag and RSET module) (not stated | Aequorea victoria). Nature of the test: AUC.

In general, stoichiometry N refers to the number of molecules, sites or subunits per partner or assembly.

For the substance “GCaMP2 (original protein with the N-terminal hexahistidine tag and RSET module)”, the stoichiometry N was determined as 2.

For the origin of these results see PMC2614139.
